Measurements published in article doi:10.1101/2023.08.04.552031, “Oligomerization and positive feedback on membrane recruitment encode dynamically stable PAR-3 asymmetries in the C. elegans zygote” (bioRxiv, 2023).

B1: PAR-3::GFP, endogenously tagged (C-terminal fusion of GFP to PAR-3 from the endogenous locus) (natural protein, C. elegans, UniProt Q17353 1-1379, looked up)
chain: MSASSTSSSSTSCPEGGEPSGSCKSSDEGESTLKKRMQQYGIASGYANSSISTLDRSQYQSLPLNGTRRVTVQFGRMKIVVPWKESDQTVGQLADAALLRYKKARGMANEDRIHVHRLECASDGGILDMDDVLEEVFDLNYDQILAITDEANGGSTTPTYSQIQKQQHHYAQPLPYARKFDGGPSTPIASAFGSVTVNHQAHRAASPYNVGFARSNSRDFAPQPTHSKERRDSVVEVSSFDQIPQSGLRVSTPKPSRQSEDVIDGKPMNQPILRSSLRTEASGSRTEEATPVKQSRVTLSPEVEKKLAEQDERKSERRKHYDKNPGRFARGSDRKSRITDALLDARDRIADQLESQNPAEETKSQMIRVKIDQGPMPGTSLVTFPPIPEKSENEKQLGIEVNAVFDESSELPGTSEPTKLSSVQIMKIEDGGRIAKDGRIRVGDCIVAIDGKPVDQMSIIRVRASISDLAAVTSRPVTLIINRSLESFLEQESSAKPIQSALQQANTQYIGHTTVVELIKSSNGFGFTVTGRETAKGERLFYIGTVKPYGVALGHLKSGDRLLEINGTPTGQWTQSEIVEKLKETMVGEKIKFLVSRVSQSAIMSTSASSENKENEETLKVVEEEKIPQKLPLPALMTPPVPKDTPALSPSGASRFEIVIPFINGSSSAGLGVSLKARVSKKSNGSKVDCGIFIKNVMHGGAAFKEGGLRVDDRIVGVEDIDLEPLDNREAQAALAKKLKEVGMISSNVRLTISRYNECNPGQISRDLSRITVDASSPSPSSRMSSHTAPDSLLPSPATRGTSSSGADSSHSRQSSASSAVPAVPARLTERDSIVSDGTSRNDESELPDSADPFNREGLGRKSLSEKRGMGAAADPQHIKLFQDIKHQRQNSAPTSSTQKRSKSQPRSSSQRNYRSPMKLVDLPTTAAASASTNSQNLDDSDMLNRRSQSMESINRPVESILRGTGQIPTGSSSKVQFMQAASPDQHPFPPGAALLRLKNEESRSRDKSRRKSMGNPFSAMRNFFGFGSKSRDASPEKTPTESVQLRSVERPKSIIDERNNGSSERAPPPLPPHQSQRRGSGGNVFVDYGEPYGLIPQYPHNTTSGYESYADSELYDRYAAHRYHPRGGPIIDEDEYIYRQQSTSGNSPINTSSYVNYGLPASNAYHVGSRIPPQTSSGSISKTSGAMRRVYPAEYDEDVAYHQQIPQQSTRYQQGSGSGRGNADYHHMFNSWFAYTGGGAVGAAPVIKSSYGSSPVRIAAASAIERGESFVVEPVSGSSASATDRRGRSTSSGAVASGSSSTGFQYAAKEKYADARSGKFNGGSTRLFIPRHGGGLSAAAFATNFGGEAYETRGGGAGGSPSQYRRRDQGPPHRFPQY
notes: PAR-3, C. elegans, oligomeric scaffold protein; expressed from the endogenous locus; Oligomers of variable size (exponential size distribution) at the cell membrane; also called endogenously-tagged PAR-3::GFP; par-1; source: expressed from the endogenous locus in C. elegans, observed in living one-cell embryos; not shown: GFP, C-terminal, kept
B2: PAR-3::GFP, transgenic (natural protein, C. elegans, UniProt Q17353 1-1379, looked up)
chain: MSASSTSSSSTSCPEGGEPSGSCKSSDEGESTLKKRMQQYGIASGYANSSISTLDRSQYQSLPLNGTRRVTVQFGRMKIVVPWKESDQTVGQLADAALLRYKKARGMANEDRIHVHRLECASDGGILDMDDVLEEVFDLNYDQILAITDEANGGSTTPTYSQIQKQQHHYAQPLPYARKFDGGPSTPIASAFGSVTVNHQAHRAASPYNVGFARSNSRDFAPQPTHSKERRDSVVEVSSFDQIPQSGLRVSTPKPSRQSEDVIDGKPMNQPILRSSLRTEASGSRTEEATPVKQSRVTLSPEVEKKLAEQDERKSERRKHYDKNPGRFARGSDRKSRITDALLDARDRIADQLESQNPAEETKSQMIRVKIDQGPMPGTSLVTFPPIPEKSENEKQLGIEVNAVFDESSELPGTSEPTKLSSVQIMKIEDGGRIAKDGRIRVGDCIVAIDGKPVDQMSIIRVRASISDLAAVTSRPVTLIINRSLESFLEQESSAKPIQSALQQANTQYIGHTTVVELIKSSNGFGFTVTGRETAKGERLFYIGTVKPYGVALGHLKSGDRLLEINGTPTGQWTQSEIVEKLKETMVGEKIKFLVSRVSQSAIMSTSASSENKENEETLKVVEEEKIPQKLPLPALMTPPVPKDTPALSPSGASRFEIVIPFINGSSSAGLGVSLKARVSKKSNGSKVDCGIFIKNVMHGGAAFKEGGLRVDDRIVGVEDIDLEPLDNREAQAALAKKLKEVGMISSNVRLTISRYNECNPGQISRDLSRITVDASSPSPSSRMSSHTAPDSLLPSPATRGTSSSGADSSHSRQSSASSAVPAVPARLTERDSIVSDGTSRNDESELPDSADPFNREGLGRKSLSEKRGMGAAADPQHIKLFQDIKHQRQNSAPTSSTQKRSKSQPRSSSQRNYRSPMKLVDLPTTAAASASTNSQNLDDSDMLNRRSQSMESINRPVESILRGTGQIPTGSSSKVQFMQAASPDQHPFPPGAALLRLKNEESRSRDKSRRKSMGNPFSAMRNFFGFGSKSRDASPEKTPTESVQLRSVERPKSIIDERNNGSSERAPPPLPPHQSQRRGSGGNVFVDYGEPYGLIPQYPHNTTSGYESYADSELYDRYAAHRYHPRGGPIIDEDEYIYRQQSTSGNSPINTSSYVNYGLPASNAYHVGSRIPPQTSSGSISKTSGAMRRVYPAEYDEDVAYHQQIPQQSTRYQQGSGSGRGNADYHHMFNSWFAYTGGGAVGAAPVIKSSYGSSPVRIAAASAIERGESFVVEPVSGSSASATDRRGRSTSSGAVASGSSSTGFQYAAKEKYADARSGKFNGGSTRLFIPRHGGGLSAAAFATNFGGEAYETRGGGAGGSPSQYRRRDQGPPHRFPQY
notes: PAR-3, C. elegans; transgenically expressed; The oligomers from which single labelled molecules depolymerise probably also hold unlabelled PAR-3 of the embryo; also called transgenic PAR-3::GFP; full length PAR-3::GFP

Key:
[1] = biological target: the molecule itself; experiment: particle intensities calibrated to single GFP molecules (near-TIRF imaging of living embryos); anterior membrane, where PAR-3 density is higher; homozygous par-1 mutant embryos, late maintenance phase; streaming mode, 100% laser power, 50 msec exposure; features binned by intensity against the mean single molecule intensity after photobleaching; size distribution fitted to An = A1 α^n−1
[2] = biological target: the molecule itself; experiment: particle intensities calibrated to single GFP molecules (near-TIRF imaging of living embryos); posterior membrane, where PAR-3 density is lower; homozygous par-1 mutant embryos, late maintenance phase; streaming mode, 100% laser power, 50 msec exposure; features binned by intensity against the mean single molecule intensity after photobleaching; size distribution fitted to An = A1 α^n−1
[3] = biological target: the molecule itself; experiment: single molecule tracking and release curves (near-TIRF imaging of living embryos); single PAR-3::GFP molecules, 100% laser power, 50 msec exposures, duty ratio of exposure varied; release curves fitted to exponentials from tmin = 1 sec; linear fit kops = kdep + dr * kpb, the intercept is kdep (depolymerization of a subunit from membrane-bound oligomers); also in par-6(RNAi) and cdc-42(RNAi) embryos, no significant …

Protein	stoichiometry N [1]	stoichiometry N [2]	koff [3] [s⁻¹]
B1	3.48 ± 0.65 subunits (mean oligomer size)	1.65 ± 0.16 subunits (mean oligomer size)	
B2			0.08
